# In patent publication US11103562B2, “Composition comprising alkaline phosphatase for use in the treatment of arthritides” (AMRIF BV, priority 2017, dated 2021):
# Key:
# macrophages = experiment: [^18F]fluoro-PEG-folate macrophage PET-CT imaging of arthritic knees; format: in vivo; details: PET scan at day 40; one rat per group
# Excerpt: The macrophage PET tracer [^18F]fluoro-PEG-folate was synthesized, with a radiochemical purity of >96.5% and mean specific activity of 27.6±3.5 GBq/μmol. Untreated and 4× AP-treated arthritic were anesthetized using inhalation anaesthetics (isoflurane 2-2.5% and oxygen […]). The tail vein was cannulated with a poly-urethane 3 French cannula (0.7 mm×19 mm, BD Angiocath, Breda, The Netherlands). During PET-CT (Mediso nanoPET-CT, Budapest, Hungary) rats were place in an integrated heating bed (˜35° C.) while monitoring respiratory function. Computed tomography (CT) scan was performed for 5 min, followed by tracer administration (10.7±1.8 MBq) at the start of a dynamic PET scan of 60 min. PET data were normalized, and corrected for scatter, randoms, attenuation, decay and dead time. The list mode PET data were rebinned in 19 successive frames (4×5, 4×10, 2×30, 3×60, 2×300, 3×600 and 1×900 s), which were reconstructed using an iterative 3D Poisson ordered-subsets expectation-maximization algorithm with 4 iterations and 6 subsets. […] The CT and PET images were superimposed for drawing the regions of interest (ROI). […] TACs were expressed as standardized uptake values (SUV), i.e. mean ROI radioactivity concentration normalized to injected dose and body weight.
# arthritic rats = experiment: Knee swelling in rats with mBSA antigen-induced arthritis; format: in vivo, rat
# Description: Experiments were performed using a rat model for RA as published by Chandruputla et al. (BioMed Int, 2015) to show the effects of recombinant human alkaline phosphatase (hRESCAP) on RA. hRESCAP was compared with MTX used as a positive control. The antigen-induced rat model uses two subcutaneous immunizations with a mixture of methylated bovine serum albumin (mBSA), CFA (complete Freund's adjuvant antigen) and CBP (custom Bordetella pertussis antigen) and intra-articular injections of mBSA on one side knee and saline (negative control) on the counter knee. Immunohistochemical (IHC) analysis specifically focussed on infiltration with macrophages and knee swelling is followed over time after therapeutic treatment with MTX, or hRESCAP.
# In the rat model, RA is induced in the right knee (RA knee), the contralateral left knee serves as a internal control (control knee). The model allows various options for therapeutic interventions, either before intra-articular injections or during boosts injections with mBSA. Two hours prior to AP administration, rats received a dose of levamisole (50 mg/kg, s.c.). For comparison, arthritic rats received treatment with methotrexate (1 mg/kg, i.p.).
# All rats (except healthy) were immunized and arthritis was induced via 1× or 4× intra-articular (i.a) mBSA injections, 4 or 5 days apart in the arthritic (right) knee, the contralateral (left, non-arthritic) knee serving as control knee. For therapeutic interventions, AP (human recombinant placenta AP, TNO, Zeist, The Netherlands) was administered subcutaneously (s.c.) at a dose of 700 U/kg (≈200 μg), MTX (VU University Medical Centers' Pharmacy) was administered intra-peritoneal (i.p.) at two dosages: 0.3 mg/kg (low dose) and 1.0 mg/kg (high dose). The rats were divided in 8 groups, based on different treatments and treatment schedules. In a prophylactic setting, two rats received AP twice prior to intra-articular (i.a.) arthritis induction and four rats received AP twice prior to intra-articular and 4× PBS in between i.a. injections. In the treatment groups, arthritic rats were administered AP twice or 4× after arthritis induction, either as standalone therapy or in combination with low or high dose MTX. Control rats received 500 μL of PBS (i.p.). […] At the end of study, all rats were sacrificed and tissues were excised for further processing and various analyses.
molecule,measurement,setting,value
"AP: human recombinant placenta alkaline phosphatase (hRESCAP; TNO, Zeist), an ectophosphatase (protein, UniProt P05187 23-506, looked up) Alkaline phosphatase, …: IIPVEEENPDFWNREAAEALGAAKKLQPAQTAAKNLIIFLGDGMGVSTVTAARILKGQKKDKLGPEIPLAMDRFPYVALSKTYNVDKHVPDSGATATAYLCGVKGNFQTIGLSAAARFNQCNTTRGNEVISVMNRAKKAGKSVGVVTTTRVQHASPAGTYAHTVNRNWYSDADVPASARQEGCQDIATQLISNMDIDVILGGGRKYMFRMGTPDPEYPDDYSQGGTRLDGKNLVQEWLAKRQGARYVWNRTELMQASLDPSVTHLMGLFEPGDMKYEIHRDSTLDPSLMEMTEAALRLLSRNPRGFFLFVEGGRIDHGHHESRAYRALTETIMFDDAIERAGQLTSEEDTLSLVTADHSHVFSFGGYPLRGSSIFGLAPGKARDRKAYTVLLYGNGPGYVLKDGARPDVTESESGSPEYRQQSAVPLDEETHAGEDVAVFARGPQAHLVHGVQEQTFIAHVMAFAACLEPYTACDLAPPAGTTD",increased [^18F]fluoro-PEG-folate uptake (SUV) in arthritic knee of the untreated rat compared to the 4× AP-treated rat,macrophages,1.5 fold
same,swelling of the mBSA-injected right knee,"arthritic rats; prophylactic and therapeutic AP treatment or MTX treatment, versus positive control",Reduced swelling
same,swelling of the non-treated left knee,arthritic rats; versus positive control treatment,swelling is reduced
